Results from patent publication US20210373004A1 (BIOASTER, published 2021).

Experiments:
[1] = target: T1, Flag-mCherry-ColAP41-Cys-6His (Pseudomonas aeruginosa AP41); test: EIA 8 plex n° 1: colicin coated at 100 nM, Im-RLuc8 alone at 100 nM, luciferase signal (FIG. 3, light grey bars)
[2] = target: T1, Flag-mCherry-ColAP41-Cys-6His; test: EIA 8 plex n° 2: colicin coated at 100 nM, Im-RLuc8 alone at 100 nM, luciferase signal (FIG. 4, light grey bars)
Flag-EmGFP-ColE7-6His [3] = target: T2, Flag-EmGFP-ColE7-6His (Escherichia coli); test: EIA 8 plex n° 1: colicin coated at 100 nM, Im-RLuc8 at 100 nM, luminescence; light bar alone, dark bar with the 7 other unfused Im proteins
T2 construct: also called Colicin E7

Flag-EmGFP-ColE2-6His [4] = target: T3, Flag-EmGFP-ColE2-6His (Escherichia coli); test: as above
T3 construct: Coated on the plate or sprayed on the membrane; also called Colicin E2

Flag-mCherry-ColE8-6His [5] = target: T4, Flag-mCherry-ColE8-6His (Escherichia coli); test: as above
T4 construct: also called Colicin E8

[6] = target: T5, Flag-mCherry-ColErw-Cys-6His (Pectobacterium carotovorum); test: as above
[7] = target: Flag-mCherry-ColSyr-Cys-6His (Pseudomonas syringae B728A); test: as above
Flag-mCherry-ColE9-6His [8] = target: T6, Flag-mCherry-ColE9-6His (Escherichia coli); test: as above
T6 construct: also called Colicin E9

[9] = target: T7, Flag-mCherry-ColLeaf-Cys-6His (Pseudomonas sp Leaf83); test: EIA 8 plex n° 2: colicin coated at 100 nM, Im-RLuc8 at 100 nM, luminescence; light bar alone, dark bar with the 7 other unfused Im proteins
[10] = target: T8, Flag-mCherry-ColKhan-Cys-6His (Photorhabdus khanii); test: as above
Flag-EmGFP-ColE2-6His [11] = target: T3, Flag-EmGFP-ColE2-6His; test: EIA 8 plex n° 1: colicin coated at 100 nM, Im-RLuc8 alone at 100 nM, luciferase signal (FIG. 3, light grey bars)
Flag-EmGFP-ColE2-6His [12] = target: T3, Flag-EmGFP-ColE2-6His; test: EIA 8 plex n° 2: colicin coated at 100 nM, Im-RLuc8 alone at 100 nM, luciferase signal (FIG. 4, light grey bars)
[13] = target: T1, Flag-mCherry-ColAP41-Cys-6His; test: EIA 8 plex n° 1: colicin coated at 100 nM, Im-RLuc8 at 100 nM, luminescence; light bar alone, dark bar with the 7 other unfused Im proteins
[14] = target: T8, Flag-mCherry-ColKhan-Cys-6His; test: as above
Flag-EmGFP-ColE7-6His [15] = target: T2, Flag-EmGFP-ColE7-6His; test: kinetics, literature value (Li W. et al., 2004) printed above the bar pair; unit from the legend paragraph 10
Flag-EmGFP-ColE2-6His [16] = target: T3, Flag-EmGFP-ColE2-6His; test: as above
Flag-mCherry-ColE8-6His [17] = target: T4, Flag-mCherry-ColE8-6His; test: as above
[18] = target: T5, Flag-mCherry-ColErw-Cys-6His; test: EIA 8 plex n° 2: colicin coated at 100 nM, Im-RLuc8 at 100 nM, luminescence; light bar alone, dark bar with the 7 other unfused Im proteins
Flag-EmGFP-ColE2-6His [19] = target: T3, Flag-EmGFP-ColE2-6His; test: EIA 4 plex: colicin coated at 100 nM, Im-RLuc8 alone at 100 nM, luciferase signal (FIG. 1, light grey bars)
Flag-EmGFP-ColE7-6His [20] = target: T2, Flag-EmGFP-ColE7-6His; test: EIA 8 plex n° 1: colicin coated at 100 nM, Im-RLuc8 alone at 100 nM, luciferase signal (FIG. 3, light grey bars)
Flag-mCherry-ColE8-6His [21] = target: T4, Flag-mCherry-ColE8-6His; test: EIA: colicin coated at 100 nM, Im-RLuc8 at 100 nM, luminescence; light bar alone, dark bar with the 3 other unfused Im proteins
Flag-mCherry-ColE9-6His [22] = target: T6, Flag-mCherry-ColE9-6His; test: kinetics, literature value (Li W. et al., 2004) printed above the bar pair; unit from the legend paragraph 10
Flag-EmGFP-ColE7-6His [23] = target: T2, Flag-EmGFP-ColE7-6His; test: EIA 4 plex: colicin coated at 100 nM, Im-RLuc8 alone at 100 nM, luciferase signal (FIG. 1, light grey bars)
Flag-mCherry-ColE8-6His [24] = target: T4, Flag-mCherry-ColE8-6His; test: EIA 8 plex n° 1: colicin coated at 100 nM, Im-RLuc8 alone at 100 nM, luciferase signal (FIG. 3, light grey bars)
Flag-EmGFP-ColE7-6His [25] = target: T2, Flag-EmGFP-ColE7-6His; test: EIA 8 plex n° 1: colicin coated at 100 nM, Im-RLuc8 alone at 100 nM, luciferase signal
[26] = target: T5, Flag-mCherry-ColErw-Cys-6His; test: as above
Flag-mCherry-ColE9-6His [27] = target: T6, Flag-mCherry-ColE9-6His; test: as above
Flag-mCherry-ColE8-6His [28] = target: T4, Flag-mCherry-ColE8-6His; test: EIA 8 plex n° 2: colicin coated at 100 nM, Im-RLuc8 alone at 100 nM, luciferase signal (FIG. 4, light grey bars)
[29] = target: T1, Flag-mCherry-ColAP41-Cys-6His; test: EIA 8 plex n° 2: colicin coated at 100 nM, Im-RLuc8 at 100 nM, luminescence; light bar alone, dark bar with the 7 other unfused Im proteins
[30] = target: T7, Flag-mCherry-ColLeaf-Cys-6His; test: EIA 8 plex n° 2: colicin coated at 100 nM, Im-RLuc8 alone at 100 nM, luciferase signal
Flag-mCherry-ColE8-6His [31] = target: T4, Flag-mCherry-ColE8-6His; test: EIA 4 plex: colicin coated at 100 nM, Im-RLuc8 alone at 100 nM, luciferase signal (FIG. 1, light grey bars)

B1: Myc-RLuc8-ImAP41-Avitag-6His (other)
chain: MGGEQKLISEEDLGGSASKVYDPEQRKRMITGPQWWARCKQMNVLDSFINYYDSEKHAENAVIFLHGNATSSYLWRHVVPHIEPVARCIIPDLIGMGKSGKSGNGSYRLLDHYKYLTAWFELLNLPKKIIFVGHDWGAALAFHYAYEHQDRIKAIVHMESVVDVIESWDEWPDIEEDIALIKSEEGEKMVLENNFFVETVLPSKIMRKLEPEEFAAYLEPFKEKGEVRRPTLSWPREIPLVKGGKPDVVQIVRNYNAYLRASDDLPKLFIESDPGFFSNAIVEGAKKFPNTEFVKVKGLHFLQEDAPDEMGKYIKSFVERVLKNEQKLPGGSDIKNNLSDYTESEFLEIIEEFFKNKSGLKGSELEKRMDKLVKHFEEVTSHPRKSGVIFHPKPGFETPEGIVKEVKEWRAANGLPGFKAGLEGGSGGSGLNDIFEAQKIEWHELEGGGSHHHHHH
notes: Immunity protein fused to the luciferase RLuc8 as reporter; added in solution; also called ImAP41-Rluc8
For B1, the RLU [1] was over 2e+06 RLU, the RLU [2] was over 2.4e+06 RLU and the binding result (Flag-EmGFP-ColE7-6His [3]) was “no binding (tested: 100 nM)”. B1: no binding (tested: 100 nM) (Flag-EmGFP-ColE2-6His [4]); no binding (tested: 100 nM) (Flag-mCherry-ColE8-6His [5]); no binding (tested: 100 nM) [6]. B1: no binding (tested: 100 nM) [7]; no binding (tested: 100 nM) (Flag-mCherry-ColE9-6His [8]); no binding (tested: 100 nM) [9]. B1: no binding (tested: 100 nM) [10].

B2: Myc-RLuc8-Im2-6His (other)
chain: MGGEQKLISEEDLGGSASKVYDPEQRKRMITGPQWWARCKQMNVLDSFINYYDSEKHAENAVIFLHGNATSSYLWRHVVPHIEPVARCIIPDLIGMGKSGKSGNGSYRLLDHYKYLTAWFELLNLPKKIIFVGHDWGAALAFHYAYEHQDRIKAIVHMESVVDVIESWDEWPDIEEDIALIKSEEGEKMVLENNFFVETVLPSKIMRKLEPEEFAAYLEPFKEKGEVRRPTLSWPREIPLVKGGKPDVVQIVRNYNAYLRASDDLPKLFIESDPGFFSNAIVEGAKKFPNTEFVKVKGLHFLQEDAPDEMGKYIKSFVERVLKNEQKLELKHSISDYTEAEFLEFVKKICRAEGATEEDDNKLVREFERLTEHPDGSDLIYYPRDDREDSPEGIVKEIKEWRAANGKSGFKQGLEGGGSHHHHHH
notes: Immunity protein fused to the luciferase RLuc8 as reporter; added in solution; also called Im2-RLuc8; Im2-Rluc8
For B2, the RLU (Flag-EmGFP-ColE2-6His [11]) was over 2e+06 RLU, the RLU (Flag-EmGFP-ColE2-6His [12]) was over 2.4e+06 RLU and the binding result [13] was “no binding (tested: 100 nM)”. For the same binder, the binding result [7] was “no binding (tested: 100 nM)”, the binding result [14] was “no binding (tested: 100 nM)” and the Kd (Flag-EmGFP-ColE7-6His [15]) was 0.36 nM. For the same binder, the Kd (Flag-EmGFP-ColE2-6His [16]) was 3.9e-06 nM, the Kd (Flag-mCherry-ColE8-6His [17]) was 18 nM and the binding result [9] was “no binding (tested: 100 nM)”. For the same binder, the binding result [18] was “no binding (tested: 100 nM)” and the RLU (Flag-EmGFP-ColE2-6His [19]) was over 400000 RLU.

B3: Myc-RLuc8-Im7-6His (other)
chain: MGGEQKLISEEDLGGSASKVYDPEQRKRMITGPQWWARCKQMNVLDSFINYYDSEKHAENAVIFLHGNATSSYLWRHVVPHIEPVARCIIPDLIGMGKSGKSGNGSYRLLDHYKYLTAWFELLNLPKKIIFVGHDWGAALAFHYAYEHQDRIKAIVHMESVVDVIESWDEWPDIEEDIALIKSEEGEKMVLENNFFVETVLPSKIMRKLEPEEFAAYLEPFKEKGEVRRPTLSWPREIPLVKGGKPDVVQIVRNYNAYLRASDDLPKLFIESDPGFFSNAIVEGAKKFPNTEFVKVKGLHFLQEDAPDEMGKYIKSFVERVLKNEQKLELKNSISDYTEAEFVQLLKEIEKENVAATDDVLDVLLEHFVKITEHPDGTDLIYYPSDNRDDSPEGIVKEIKEWRAANGKPGFKQGLEGGGSHHHHHH
notes: Immunity protein fused to the luciferase RLuc8 as reporter; added in solution; also called Im7-RLuc8; Im7-Rluc8
B3 was tested, and the RLU (Flag-EmGFP-ColE7-6His [20]) was over 2e+06 RLU, the binding result (Flag-mCherry-ColE8-6His [21]) was “binds” and the binding result [13] was “no binding (tested: 100 nM)”. B3: no binding (tested: 100 nM) [6]; no binding (tested: 100 nM) [7]; no binding (tested: 100 nM) [14]. It also gave a Kd (Flag-EmGFP-ColE2-6His [16]) of 14 nM, a Kd (Flag-mCherry-ColE9-6His [22]) of about 100000 nM and an RLU (Flag-EmGFP-ColE7-6His [23]) of over 400000 RLU.

B4: Myc-RLuc8-Im8-6His (other)
chain: MGGEQKLISEEDLGGSASKVYDPEQRKRMITGPQWWARCKQMNVLDSFINYYDSEKHAENAVIFLHGNATSSYLWRHVVPHIEPVARCIIPDLIGMGKSGKSGNGSYRLLDHYKYLTAWFELLNLPKKIIFVGHDWGAALAFHYAYEHQDRIKAIVHMESVVDVIESWDEWPDIEEDIALIKSEEGEKMVLENNFFVETVLPSKIMRKLEPEEFAAYLEPFKEKGEVRRPTLSWPREIPLVKGGKPDVVQIVRNYNAYLRASDDLPKLFIESDPGFFSNAIVEGAKKFPNTEFVKVKGLHFLQEDAPDEMGKYIKSFVERVLKNEQKLELKNSISDYTETEFKKIIEDIINCEGDEKKQDDNLEHFISVTEHPSGSDLIYYPEGNNDGSPEAVIKEIKEWRAANGKSGFKQGLEGGGSHHHHHH
notes: Immunity protein fused to the luciferase RLuc8 as reporter; added in solution; also called Im8-RLuc8; Im8-Rluc8
Work on B4 yielded an RLU (Flag-mCherry-ColE8-6His [24]) of over 2e+06 RLU, an RLU (Flag-EmGFP-ColE7-6His [25]) of over 100000 RLU and an RLU [26] of over 100000 RLU. For the same binder, the RLU (Flag-mCherry-ColE9-6His [27]) was over 100000 RLU, the RLU (Flag-mCherry-ColE8-6His [28]) was over 2.4e+06 RLU and the binding result [7] was “no binding (tested: 100 nM)”. The binding result [14] was “no binding (tested: 100 nM)”, the Kd (Flag-EmGFP-ColE7-6His [15]) was 0.37 nM and the Kd (Flag-EmGFP-ColE2-6His [16]) was 38 nM. The Kd (Flag-mCherry-ColE9-6His [22]) was 500 nM, the binding result [29] was “no binding (tested: 100 nM)” and the RLU [30] was over 100000 RLU. The RLU (Flag-mCherry-ColE8-6His [31]) was over 400000 RLU.
